We go through 12 molecules from patent publication US20240317847A1 (Bayer, published 2024).

Several values for one entry are separate records, joined by “and”; a condition that tells them apart may be missing. Identical values can stand only once.

What all share (experiment): cell-based or functional assay
The target in test [1] is T1, human IL-11 (human, UniProt P20809 22-199).
T1 sequence: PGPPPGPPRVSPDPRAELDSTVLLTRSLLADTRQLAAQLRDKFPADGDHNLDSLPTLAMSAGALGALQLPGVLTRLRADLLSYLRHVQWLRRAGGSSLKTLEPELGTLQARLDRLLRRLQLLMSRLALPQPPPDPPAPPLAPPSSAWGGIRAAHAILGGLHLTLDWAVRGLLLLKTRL

The target of test [2] is T2, murine IL-11 (mouse, UniProt P47873 22-199).
T2 sequence: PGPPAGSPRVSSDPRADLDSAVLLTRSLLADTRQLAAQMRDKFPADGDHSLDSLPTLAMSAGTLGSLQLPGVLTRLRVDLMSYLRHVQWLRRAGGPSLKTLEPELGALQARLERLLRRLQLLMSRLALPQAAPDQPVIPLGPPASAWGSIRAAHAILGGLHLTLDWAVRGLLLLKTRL

Test [3] deals with T3, human IL-11 (human, UniProt P20809 22-199).
T3 sequence: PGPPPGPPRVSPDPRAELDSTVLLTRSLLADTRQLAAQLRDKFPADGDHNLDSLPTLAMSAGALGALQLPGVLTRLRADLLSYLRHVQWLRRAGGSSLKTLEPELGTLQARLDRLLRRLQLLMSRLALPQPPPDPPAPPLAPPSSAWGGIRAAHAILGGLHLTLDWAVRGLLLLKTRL
This is another data set of the same source.

The target of test [4] is T4, murine IL-11 (mouse, UniProt P47873 22-199).
T4 sequence: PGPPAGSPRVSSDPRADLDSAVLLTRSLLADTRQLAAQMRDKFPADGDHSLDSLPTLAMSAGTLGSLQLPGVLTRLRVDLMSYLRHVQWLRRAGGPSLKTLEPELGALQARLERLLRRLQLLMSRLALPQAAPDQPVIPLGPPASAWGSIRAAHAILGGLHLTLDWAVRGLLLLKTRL
The source holds these as a separate data set.

B1: TPP-31295 (antibody, IgG4, V domains shown)
VH: EVQLLESGGGLVQPGGSLRLSCAASGFTFSHYDMNWLRQAPGKGLEWVGVISYDGSNKYYADFVKGRFTISRDNSKNTLYLQMNSLRAEDTAVYYCARTPGSHFDYWGQGTLVTVSS
VL: QSVLTQPPSASGTPGQRVTISCSGSSSNIGNNAVNWYQQLPGTAPKLLIYYDDLLPSGVPDRFSGSKSGTSASLAISGLRSEDEADYYCSAWDDSLNGVVFGGGTKLTVL
Turning to B1, in the test with human IL-11 [1], the “IC50, RGA 1” value was found to be 364 nM and the “IC50, RGA 2” value was 92 nM. Besides, in the test with murine IL-11 [2], the “IC50, RGA 1” value is 60 nM and the “IC50, RGA 2” value was found to be 37 nM.

B2: TPP-31300 (antibody, IgG4, V domains shown)
VH: EVQLLESGGGLVQPGGSLRLSCAASGFTFSHYDMNWLRQAPGKGLEWVGVISYEGSNKFYADFVKGRFTISRDNSKNTLYLQMNSLRAEDTAVYYCARTPGSHFDYWGQGTLVTVSS
VL: QSVLTQPPSASGTPGQRVTISCSGSSSNIGNNAVNWYQQLPGTAPKLLIYYDDLLPSGVPDRFSGSKSGTSASLAISGLRSEDEADYYCSAWDDSLNGVVFGGGTKLTVL
Consider B2, for which, in the test with human IL-11 [1], the “IC50, RGA 1” value worked out at 1.09 nM and the “IC50, RGA 2” value was 4.75 nM. Further, in the test with murine IL-11 [2], the “IC50, RGA 1” value came out at 3.42 nM and the “IC50, RGA 2” value was 0.81 nM.

B3: TPP-31301 (antibody, IgG4, V domains shown)
VH: EVQLLESGGGLVQPGGSLRLSCAASGFTFSHYDMNWLRQAPGKGLEWVGVISYEGSNKFYADFVKGRFTISRDNSKNTLYLQMNSLRAEDTAVYYCARTPGSHFDYWGQGTLVTVSS
VL: QSVLTQPPSASGTPGQRVTISCSGSSSNIGNNAVNWYQQLPGTAPKLLIYYDDLLPSGVPDRFSGSKSGTSASLAISGLRSEDEADYYCSAWDDSLQGVVFGGGTKLTVL
For the molecule B3, in the test with human IL-11 [1], the “IC50, RGA 1” value came to 18.9 nM and the “IC50, RGA 2” value worked out at 9.71 nM. Moreover, in the test with murine IL-11 [2], the “IC50, RGA 1” value was 4.43 nM and the “IC50, RGA 2” value turned out to be 1.77 nM.

B4: TPP-31299 (antibody, IgG4, V domains shown)
VH: EVQLLESGGGLVQPGGSLRLSCAASGFTFSHYDMNWLRQAPGKGLEWVGVISYDGSNKFYADFVKGRFTISRDNSKNTLYLQMNSLRAEDTAVYYCARTPGSHFDYWGQGTLVTVSS
VL: QSVLTQPPSASGTPGQRVTISCSGSSSNIGNNAVNWYQQLPGTAPKLLIYYDDLLPSGVPDRFSGSKSGTSASLAISGLRSEDEADYYCSAWDDSLNAVVFGGGTKLTVL
For B4, in the test with human IL-11 [1], the “IC50, RGA 1” value came to 238 nM and the “IC50, RGA 2” value came to 114 nM. Besides, in the test with murine IL-11 [2], the “IC50, RGA 1” value came to 44 nM and the “IC50, RGA 2” value was found to be 14 nM.

B5: TPP-31303 (antibody, IgG4, V domains shown)
VH: EVQLLESGGGLVQPGGSLRLSCAASGFTFSHYDMNWLRQAPGKGLEWVGVISYEGSNKFYADFVKGRFTISRDNSKNTLYLQMNSLRAEDTAVYYCARTPGSHFDYWGQGTLVTVSS
VL: QSVLTQPPSASGTPGQRVTISCSGSSSNIGNNAVNWYQQLPGTAPKLLIYYDDLLPSGVPDRFSGSKSGTSASLAISGLRSEDEADYYCSAWDDSLNAVVFGGGTKLTVL
For the molecule B5, in the test with human IL-11 [1], the “IC50, RGA 1” value came out at 9.08 nM and the “IC50, RGA 2” value is 11 nM. Also, in the test with murine IL-11 [2], the “IC50, RGA 1” value was 4.38 nM and the “IC50, RGA 2” value was 2.49 nM.

B6: TPP-31297 (antibody, IgG4, V domains shown)
VH: EVQLLESGGGLVQPGGSLRLSCAASGFTFSHYDMNWLRQAPGKGLEWVGVISYDGSNKFYADFVKGRFTISRDNSKNTLYLQMNSLRAEDTAVYYCARTPGSHFDYWGQGTLVTVSS
VL: QSVLTQPPSASGTPGQRVTISCSGSSSNIGNNAVNWYQQLPGTAPKLLIYYDDLLPSGVPDRFSGSKSGTSASLAISGLRSEDEADYYCSAWDDSLQGVVFGGGTKLTVL
B6: the entries for the “IC50, RGA 1” value in the test with human IL-11 [1] and in the test with murine IL-11 [2] were 181 nM and 37 nM, respectively. In addition, the “IC50, RGA 2” value in the test with human IL-11 [1] was 22 nM; with murine IL-11 [2], 7.93 nM.

B7: TPP-18087 (antibody, mouse IgG1, V domains shown)
VH: EVQLLESGGGLVQPGGSLRLSCAASGFTFSHYDMNWLRQAPGKGLEWVGVISYDGSNKFYADFVKGRFTISRDNSKNTLYLQMNSLRAEDTAVYYCARTPGSHFDYWGQGTLVTVSS
VL: QSVLTQPPSASGTPGQRVTISCSGSSSNIGNNAVNWYQQLPGTAPKLLIYYDDLLPSGVPDRFSGSKSGTSASLAISGLRSEDEADYYCSAWDDSLNGVVFGGGTKLTVLG
For the molecule B7, the “IC50, RGA 1” value was 111 nM and 93 nM in the test with human IL-11 [1]; 204 nM and 231 nM in the test with murine IL-11 [2]. Besides, the “IC50, RGA 2” value amounted to 12 nM with human IL-11 [1] and 21 nM with murine IL-11 [2].

B8: TPP-31302 (antibody, IgG4, V domains shown)
VH: EVQLLESGGGLVQPGGSLRLSCAASGFTFSHYDMNWLRQAPGKGLEWVGVISYEGSNKFYADFVKGRFTISRDNSKNTLYLQMNSLRAEDTAVYYCARTPGSHFDYWGQGTLVTVSS
VL: QSVLTQPPSASGTPGQRVTISCSGSSSNIGNNAVNWYQQLPGTAPKLLIYYDDLLPSGVPDRFSGSKSGTSASLAISGLRSEDEADYYCSAWDDSLSGVVFGGGTKLTVL
Regarding B8, in the test with human IL-11 [1], the “IC50, RGA 1” value came to 14.5 nM and the “IC50, RGA 2” value was 7.13 nM. For the same molecule, in the test with murine IL-11 [2], the “IC50, RGA 1” value worked out at 3.49 nM and the “IC50, RGA 2” value was 1.17 nM.

B9: TPP-31298 (antibody, IgG4, V domains shown)
VH: EVQLLESGGGLVQPGGSLRLSCAASGFTFSHYDMNWLRQAPGKGLEWVGVISYDGSNKFYADFVKGRFTISRDNSKNTLYLQMNSLRAEDTAVYYCARTPGSHFDYWGQGTLVTVSS
VL: QSVLTQPPSASGTPGQRVTISCSGSSSNIGNNAVNWYQQLPGTAPKLLIYYDDLLPSGVPDRFSGSKSGTSASLAISGLRSEDEADYYCSAWDDSLSGVVFGGGTKLTVL
On to B9, for which, in the test with human IL-11 [1], the “IC50, RGA 1” value turned out to be 135 nM and the “IC50, RGA 2” value is 33 nM. In addition, in the test with murine IL-11 [2], the “IC50, RGA 1” value was determined as 21 nM and the “IC50, RGA 2” value worked out at 6.22 nM.

B10: TPP-26290 (antibody, V domains shown)
VH: EVQLLESGGGLVQPGGSLRLSCAASGFTFSSYGMHWVRQAPGKGLEWVSVISYDGSYKYYADSVKGRFTISRDNSKNTLYLQMNSLRAEDTAVYYCAAGVPDYWGQGTLVTVSS
VL: QSVLTQPPSASGTPGQRVTISCTGSSSNIGAGMDVHWYQQLPGTAPKLLIYSNNERPSGVPDRFSGSKSGTSASLAISGLRSEDEADYYCAAWDDSLNGPVFGGGTKLTVL
In the case of B10, in the test with human IL-11 [3], the “RGA Efficacy (%)” value is 75.9% and the “RGA IC50” value is 4.7 nM. Also, in the test with murine IL-11 [4], the “RGA Efficacy (%)” value turned out to be 95.1% and the “RGA IC50” value was determined as 0.97 nM.

B11: TPP-26301 (antibody, V domains shown)
VH: EVQLLESGGGLVQPGGSLRLSCAASGFTFSSYGMHWVRQAPGKGLEWVSVISYDGSYKYYADSVKGRFTISRDNSKNTLYLQMNSLRAEDTAVYYCAAGVPDYWGQGTLVTVSS
VL: QSVLTQPPSASGTPGQRVTISCTGSSSNIGADYDVHWYQQLPGTAPKLLIYSNNERPSGVPDRFSGSKSGTSASLAISGLRSEDEADYYCAAWDDSLNGPVFGGGTKLTVL
As for B11, the “RGA Efficacy (%)” value was 76.1% with human IL-11 [3] and 91.8% with murine IL-11 [4]. The “RGA IC50” value with human IL-11 [3] came out at 2.6 nM; with murine IL-11 [4], 1.5 nM.

B12: TPP-26312 (antibody, V domains shown)
VH: EVQLLESGGGLVQPGGSLRLSCAASGFTFSSYGMHWVRQAPGKGLEWVSVISYDGSYKYYADSVKGRFTISRDNSKNTLYLQMNSLRAEDTAVYYCAAGVPDYWGQGTLVTVSS
VL: QSVLTQPPSASGTPGQRVTISCTGSSSNIGAGLDVHWYQQLPGTAPKLLIYSNNERPSGVPDRFSGSKSGTSASLAISGLRSEDEADYYCAAWDDSLNGPVFGGGTKLTVL
With B12, in the test with human IL-11 [3], the “RGA Efficacy (%)” value was 68.6% and the “RGA IC50” value worked out at 3.8 nM. Besides, in the test with murine IL-11 [4], the “RGA Efficacy (%)” value is 87.3% and the “RGA IC50” value was 1.2 nM.
